Test results from US20050042208A1.

Molecular target: CD44 existing on the cell surface of CTLs (human) (UniProt P16070)
Experiment: cell-based or functional assay

UniProt P16070, sequence (P16070 21-742): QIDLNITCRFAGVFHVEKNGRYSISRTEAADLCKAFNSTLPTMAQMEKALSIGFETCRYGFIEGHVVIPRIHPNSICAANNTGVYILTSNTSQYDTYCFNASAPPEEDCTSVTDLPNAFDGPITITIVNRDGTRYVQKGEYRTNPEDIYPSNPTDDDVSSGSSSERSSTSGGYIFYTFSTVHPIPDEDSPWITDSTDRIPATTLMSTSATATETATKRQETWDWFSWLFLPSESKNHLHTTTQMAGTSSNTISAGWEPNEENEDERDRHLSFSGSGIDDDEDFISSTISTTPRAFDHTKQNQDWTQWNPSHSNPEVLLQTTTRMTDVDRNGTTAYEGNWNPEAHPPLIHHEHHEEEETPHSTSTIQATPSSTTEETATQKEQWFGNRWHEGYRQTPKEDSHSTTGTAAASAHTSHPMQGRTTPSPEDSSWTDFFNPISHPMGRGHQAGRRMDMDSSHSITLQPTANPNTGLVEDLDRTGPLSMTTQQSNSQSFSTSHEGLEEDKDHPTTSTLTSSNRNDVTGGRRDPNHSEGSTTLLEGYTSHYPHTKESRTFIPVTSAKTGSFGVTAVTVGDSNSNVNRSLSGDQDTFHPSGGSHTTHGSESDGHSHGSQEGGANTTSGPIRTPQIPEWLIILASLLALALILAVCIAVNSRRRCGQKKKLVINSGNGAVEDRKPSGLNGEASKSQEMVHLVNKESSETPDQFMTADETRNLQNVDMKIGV

Substance: anti-CD44 antibody (hyaluronic acid-bound Non-blocking antibody; HA Non-blocking Anti-CD44 Antibody), monoclonal, manufactured by Ancell
- Cytotoxic Activity (%), E/T Ratio 3, peptide pulse +, after expansion with antibody: 32.4%
- Cytotoxic Activity (%), E/T Ratio 3, peptide pulse -, after expansion with antibody: 10.3%
- Cytotoxic Activity (%), E/T Ratio 10, peptide pulse +, after expansion with antibody: 60.1%
- Cytotoxic Activity (%), E/T Ratio 10, peptide pulse -, after expansion with antibody: 14.2%
- Cytotoxic Activity (%), E/T Ratio 30, peptide pulse +, after expansion with antibody: 105%
- Cytotoxic Activity (%), E/T Ratio 30, peptide pulse -, after expansion with antibody: 21.2%
